Data taken from paper PMC10576442, “Cullin‐associated and neddylation‐dissociated 1 regulate reprogramming of lipid metabolism through SKP1‐Cullin‐1‐F‐box^FBXO11‐mediated heterogeneous nuclear ribonucleoprotein A2/B1 ubiquitination and promote hepatocellular carcinoma” (Clinical and Translational Medicine, 2023).

Molecular target: T1, HA-FBXO11 fusion protein expressed in E. coli (UniProt Q86XK2 1-927)
T1 construct: FBXO11 with an HA tag, expressed in E. coli; The methods of the GST pull-down speak of total cell lysates, the results of purified proteins from E. coli; source: E. coli, purified
T1 sequence (looked up): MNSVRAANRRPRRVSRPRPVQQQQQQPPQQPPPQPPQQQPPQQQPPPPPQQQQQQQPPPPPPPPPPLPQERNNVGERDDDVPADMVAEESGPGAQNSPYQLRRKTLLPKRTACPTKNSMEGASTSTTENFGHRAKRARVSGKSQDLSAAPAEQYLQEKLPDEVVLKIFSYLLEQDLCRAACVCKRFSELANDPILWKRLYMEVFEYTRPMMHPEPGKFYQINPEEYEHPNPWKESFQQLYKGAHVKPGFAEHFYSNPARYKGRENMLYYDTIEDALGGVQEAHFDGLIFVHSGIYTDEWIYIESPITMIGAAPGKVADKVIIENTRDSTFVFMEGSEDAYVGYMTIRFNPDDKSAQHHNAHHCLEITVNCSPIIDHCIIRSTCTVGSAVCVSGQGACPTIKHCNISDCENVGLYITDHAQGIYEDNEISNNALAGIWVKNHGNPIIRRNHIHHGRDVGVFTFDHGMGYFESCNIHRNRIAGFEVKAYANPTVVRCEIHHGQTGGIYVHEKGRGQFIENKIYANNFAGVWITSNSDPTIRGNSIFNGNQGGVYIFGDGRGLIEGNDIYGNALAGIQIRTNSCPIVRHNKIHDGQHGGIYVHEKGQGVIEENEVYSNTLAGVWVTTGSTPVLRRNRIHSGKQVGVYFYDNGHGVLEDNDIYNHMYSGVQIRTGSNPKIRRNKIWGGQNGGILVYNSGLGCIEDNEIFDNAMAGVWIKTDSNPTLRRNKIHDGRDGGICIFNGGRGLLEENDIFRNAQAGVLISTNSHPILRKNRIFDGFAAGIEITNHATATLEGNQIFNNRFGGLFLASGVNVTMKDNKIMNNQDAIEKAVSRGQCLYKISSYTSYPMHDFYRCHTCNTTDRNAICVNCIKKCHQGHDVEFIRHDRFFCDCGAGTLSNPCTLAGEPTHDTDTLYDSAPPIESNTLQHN
Assay: pull-down; GST pull-down (Magne GST pull-down system), GST-hnRNPA2B1 immobilised on magnetic beads, overnight at 4 °C, HA-FBXO11 expressed in E. coli, western blot
Conditions: both partners purified

binding result: binds
B1: GST-hnRNPA2B1 (natural protein, UniProt P22626 1-353, looked up)
chain: MEKTLETVPLERKKREKEQFRKLFIGGLSFETTEESLRNYYEQWGKLTDCVVMRDPASKRSRGFGFVTFSSMAEVDAAMAARPHSIDGRVVEPKRAVAREESGKPGAHVTVKKLFVGGIKEDTEEHHLRDYFEEYGKIDTIEIITDRQSGKKRGFGFVTFDDHDPVDKIVLQKYHTINGHNAEVRKALSRQEMQEVQSSRSGRGGNFGFGDSRGGGGNFGPGPGSNFRGGSDGYGSGRGFGDGYNGYGGGPGGGNFGGSPGYGGGRGGYGGGGPGYGNQGGGYGGGYDNYGGGNYGSGNYNDFGNYNQQPSNYGPMKSGNFGGSRNMGGPYGGGNYGPGGSGGSGGYGGRSRY
notes: hnRNPA2B1 as a GST fusion protein; source: E. coli BL21 (DE3), purified (GST-tag purification resin)
